The target in assay [1] is T1, human PCSK9 with a C-terminal myc-myc-hexahistidine tag (human, UniProt Q8NBP7 31-692, limits assumed).
T1 construct: also called hPCSK9-mmH; hPCSK9-mmh; not shown: C-terminal myc-myc-hexahistidine tag
In words: SPR 25C pH 5.75, mAb captured.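 Further: biacore surface with anti-human Fc antibody capturing the antibodies, PCSK9 as analyte, one-to-one kinetic fit, KD as kd over ka, half-life derived from kd.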

In assay [2] the target is T1, human PCSK9 with a C-terminal …. In words: SPR 25C pH 7.2, mAb captured.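 Further: biacore SPR, antibodies captured on anti-human Fc CM4 chip with PCSK9 flowed as analyte, rate constants from a one-to-one kinetic fit, KD and half-life derived from them.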
Method: (§1) A Biacore CM4 sensor chip was derivatized with a monoclonal mouse anti-human Fc antibody to capture human antibodies. The histidine substitution variant anti-PCSK9 antibodies were captured onto the anti-human Fc sensor surface from culture medium after transient expression in Chinese hamster ovary (CHO) cells. […] Kinetic association (kₐ) and dissociation (kd) rate constants were determined by processing and fitting the data to a 1:1 binding model using Scrubber 2.0 curve fitting software. Binding dissociation equilibrium constants (KD) and dissociative half-lives (t_{1/2}) were calculated from the kinetic rate constants as: KD (M)=kd/kₐ; and t_{1/2} (min)=(In2/(60*kd).
Assay [3] has the same target. In words: SPR 25C, mAb captured.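 Further: biacore CM4 surface bearing anti-human Fc antibody capturing the mAbs, PCSK9 binding and release rates fitted with a one-to-one model, KD and half-life derived from those rates.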
Method: as §1

B1: VH-S30H (antibody, V domains shown)
VH: EMQLVESGGGLVQPGGSLRLSCAASGFTFHSHWMKWVRQAPGKGLEWVANINQDGSEKYYVDSVKGRFTISRDNAKNSLFLQMNSLRAEDTAVYYCARDIVLMVYDMDYYYYGMDVWGQGTTVTVSS
VL: not shown
notes: His variant of 300N
Consider B1, for which, in assay [1], the equilibrium dissociation constant (Kd) is 1.09 nM and the t½ is 13 min. In addition, in assay [2], the Kd was found to be 1.06 nM and the t½ is 41 min. For the same molecule, in assay [3], the “KD ratio pH 5.75/pH 7.2” value turned out to be 1.03 and the “t½ ratio pH 5.75/pH 7.2” value was 0.33.

B2: VK-G56H (antibody, V domains shown)
VH: EMQLVESGGGLVQPGGSLRLSCAASGFTFSSHWMKWVRQAPGKGLEWVANINQDGSEKYYVDSVKGRFTISRDNAKNSLFLQMNSLRAEDTAVYYCARDIVLMVYDMDYYYYGMDVWGQGTTVTVSS
VL: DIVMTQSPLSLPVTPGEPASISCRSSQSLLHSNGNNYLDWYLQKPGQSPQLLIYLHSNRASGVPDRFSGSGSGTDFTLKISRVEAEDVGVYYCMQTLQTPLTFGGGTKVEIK
notes: His variant of 300N
As for B2, in assay [1], the dissociation constant (Kd) is 1.83 nM and the t½ is 9 min. In assay [2], this molecule returned a Kd of 1.11 nM and a t½ of 36 min. In assay [3], the “KD ratio pH 5.75/pH 7.2” value came to 1.65 and the “t½ ratio pH 5.75/pH 7.2” value came out at 0.24.

B3: VH-Y110H (antibody, V domains shown)
VH: EMQLVESGGGLVQPGGSLRLSCAASGFTFSSHWMKWVRQAPGKGLEWVANINQDGSEKYYVDSVKGRFTISRDNAKNSLFLQMNSLRAEDTAVYYCARDIVLMVYDMDYHYYGMDVWGQGTTVTVSS
VL: not shown
notes: His variant of 300N
In assay [1], B3 returned a dissociation constant Kd of 3.37 nM and a t½ of 7 min. In assay [2], this molecule yielded a dissociation constant Kd of 194 nM and a t½ of 1 min. Moreover, in assay [3], the “KD ratio pH 5.75/pH 7.2” value came out at 0.02 and the “t½ ratio pH 5.75/pH 7.2” value was found to be 9.97.

B4: VH-T28H (antibody, V domains shown)
VH: EMQLVESGGGLVQPGGSLRLSCAASGFHFSSHWMKWVRQAPGKGLEWVANINQDGSEKYYVDSVKGRFTISRDNAKNSLFLQMNSLRAEDTAVYYCARDIVLMVYDMDYYYYGMDVWGQGTTVTVSS
VL: not shown
notes: His variant of 300N
As for B4, in assay [1], the Kd came to 1.45 nM and the t½ was 16 min. Also, in assay [2], the affinity, expressed as Kd, was 2.96 nM and the t½ is 20 min. For the same molecule, in assay [3], the “KD ratio pH 5.75/pH 7.2” value is 0.49 and the “t½ ratio pH 5.75/pH 7.2” value is 0.8.

B5: VK-N33H (antibody, V domains shown)
VH: EMQLVESGGGLVQPGGSLRLSCAASGFTFSSHWMKWVRQAPGKGLEWVANINQDGSEKYYVDSVKGRFTISRDNAKNSLFLQMNSLRAEDTAVYYCARDIVLMVYDMDYYYYGMDVWGQGTTVTVSS
VL: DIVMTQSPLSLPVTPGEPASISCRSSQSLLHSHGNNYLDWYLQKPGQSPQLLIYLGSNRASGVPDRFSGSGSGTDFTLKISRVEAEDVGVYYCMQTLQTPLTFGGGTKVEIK
notes: His variant of 300N
In assay [1], B5 registered an equilibrium dissociation constant (Kd) of 369 nM and a t½ of 0.3 min. In assay [2], this molecule returned a Kd of 9.69 nM and a t½ of 2 min. In assay [3], the “KD ratio pH 5.75/pH 7.2” value was 38.1 and the “t½ ratio pH 5.75/pH 7.2” value amounted to 0.12.

B6: VK-L97H (antibody, V domains shown)
VH: EMQLVESGGGLVQPGGSLRLSCAASGFTFSSHWMKWVRQAPGKGLEWVANINQDGSEKYYVDSVKGRFTISRDNAKNSLFLQMNSLRAEDTAVYYCARDIVLMVYDMDYYYYGMDVWGQGTTVTVSS
VL: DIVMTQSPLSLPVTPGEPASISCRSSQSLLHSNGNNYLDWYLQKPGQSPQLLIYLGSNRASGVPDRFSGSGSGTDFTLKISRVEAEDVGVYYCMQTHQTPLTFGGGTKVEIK
notes: His variant of 300N
In assay [1], B6 registered a Kd of 12.8 nM and a t½ of 8 min. In assay [2], this molecule came in with a dissociation constant Kd of 6.61 nM and a t½ of 45 min. In addition, in assay [3], the “KD ratio pH 5.75/pH 7.2” value is 1.94 and the “t½ ratio pH 5.75/pH 7.2” value is 0.18.

B7: VH-S56H (antibody, V domains shown)
VH: EMQLVESGGGLVQPGGSLRLSCAASGFTFSSHWMKWVRQAPGKGLEWVANINQDGHEKYYVDSVKGRFTISRDNAKNSLFLQMNSLRAEDTAVYYCARDIVLMVYDMDYYYYGMDVWGQGTTVTVSS
VL: not shown
notes: His variant of 300N
Take B7: in assay [1], the dissociation constant Kd stood at 1.13 nM and the t½ amounted to 9 min. In assay [2], this molecule had a Kd of 1.02 nM and a t½ of 40 min. In addition, in assay [3], the “KD ratio pH 5.75/pH 7.2” value turned out to be 1.11 and the “t½ ratio pH 5.75/pH 7.2” value came to 0.23.

B8: VK-N35H (antibody, V domains shown)
VH: EMQLVESGGGLVQPGGSLRLSCAASGFTFSSHWMKWVRQAPGKGLEWVANINQDGSEKYYVDSVKGRFTISRDNAKNSLFLQMNSLRAEDTAVYYCARDIVLMVYDMDYYYYGMDVWGQGTTVTVSS
VL: not shown
notes: His variant of 300N
For B8, in assay [1], binding was put at a Kd of 2.09 nM and the t½ was found to be 14 min. In assay [2], this molecule registered a Kd of 1.06 nM and a t½ of 48 min. Further, in assay [3], the “KD ratio pH 5.75/pH 7.2” value was 1.98 and the “t½ ratio pH 5.75/pH 7.2” value came out at 0.29.

B9: VK-G34H (antibody, V domains shown)
VH: EMQLVESGGGLVQPGGSLRLSCAASGFTFSSHWMKWVRQAPGKGLEWVANINQDGSEKYYVDSVKGRFTISRDNAKNSLFLQMNSLRAEDTAVYYCARDIVLMVYDMDYYYYGMDVWGQGTTVTVSS
VL: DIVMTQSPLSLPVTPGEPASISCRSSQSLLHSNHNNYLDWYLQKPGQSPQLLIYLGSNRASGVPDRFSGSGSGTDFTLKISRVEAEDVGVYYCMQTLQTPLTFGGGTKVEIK
notes: His variant of 300N
On to B9, for which, in assay [1], the dissociation constant (Kd) was 2370 nM and the t½ was 0.3 min. In assay [2], this molecule gave a Kd of 18 nM and a t½ of 1 min. Further, in assay [3], the “KD ratio pH 5.75/pH 7.2” value turned out to be 131 and the “t½ ratio pH 5.75/pH 7.2” value stood at 0.38.

B10: VK-L55H (antibody, V domains shown)
VH: EMQLVESGGGLVQPGGSLRLSCAASGFTFSSHWMKWVRQAPGKGLEWVANINQDGSEKYYVDSVKGRFTISRDNAKNSLFLQMNSLRAEDTAVYYCARDIVLMVYDMDYYYYGMDVWGQGTTVTVSS
VL: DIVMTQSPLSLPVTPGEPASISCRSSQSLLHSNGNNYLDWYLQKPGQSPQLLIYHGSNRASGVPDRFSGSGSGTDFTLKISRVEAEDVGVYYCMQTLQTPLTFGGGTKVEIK
notes: His variant of 300N
With B10, in assay [1], binding was put at a Kd of 2.68 nM and the t½ amounted to 19 min. In assay [2], this molecule yielded a Kd of 0.906 nM and a t½ of 66 min. Also, in assay [3], the “KD ratio pH 5.75/pH 7.2” value turned out to be 2.95 and the “t½ ratio pH 5.75/pH 7.2” value is 0.29.

B11: VK-L29H (antibody, V domains shown)
VH: EMQLVESGGGLVQPGGSLRLSCAASGFTFSSHWMKWVRQAPGKGLEWVANINQDGSEKYYVDSVKGRFTISRDNAKNSLFLQMNSLRAEDTAVYYCARDIVLMVYDMDYYYYGMDVWGQGTTVTVSS
VL: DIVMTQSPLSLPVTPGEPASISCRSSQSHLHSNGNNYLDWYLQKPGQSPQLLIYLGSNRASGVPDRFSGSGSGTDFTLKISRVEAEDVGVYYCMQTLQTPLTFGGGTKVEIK
notes: His variant of 300N
Regarding B11, in assay [1], the equilibrium dissociation constant (Kd) stood at 40.2 nM and the t½ was 1 min. For the same molecule, in assay [2], the Kd turned out to be 12.9 nM and the t½ stood at 7 min. Besides, in assay [3], the “KD ratio pH 5.75/pH 7.2” value was found to be 3.12 and the “t½ ratio pH 5.75/pH 7.2” value turned out to be 0.16.

B12: VH-V116H (antibody, V domains shown)
VH: EMQLVESGGGLVQPGGSLRLSCAASGFTFSSHWMKWVRQAPGKGLEWVANINQDGSEKYYVDSVKGRFTISRDNAKNSLFLQMNSLRAEDTAVYYCARDIVLMVYDMDYYYYGMDHWGQGTTVTVSS
VL: not shown
notes: His variant of 300N
In assay [1], B12 showed a Kd of 6.11 nM and a t½ of 11 min. Also, in assay [2], the dissociation constant Kd was found to be 2.62 nM and the t½ was 43 min. For the same molecule, in assay [3], the “KD ratio pH 5.75/pH 7.2” value came out at 2.33 and the “t½ ratio pH 5.75/pH 7.2” value was determined as 0.26.

B13: VH-Y109H (antibody, V domains shown)
VH: EMQLVESGGGLVQPGGSLRLSCAASGFTFSSHWMKWVRQAPGKGLEWVANINQDGSEKYYVDSVKGRFTISRDNAKNSLFLQMNSLRAEDTAVYYCARDIVLMVYDMDHYYYGMDVWGQGTTVTVSS
VL: not shown
notes: His variant of 300N
As to B13, in assay [1], binding was characterised by a dissociation constant (Kd) of 247 nM and the t½ worked out at 1 min. In assay [2], the affinity, expressed as Kd, was 242 nM and the t½ is 0 min. In assay [3], the “KD ratio pH 5.75/pH 7.2” value worked out at 1.02 and the “t½ ratio pH 5.75/pH 7.2” value was found to be 1.37.

B14: VH-Y105H (antibody, V domains shown)
VH: EMQLVESGGGLVQPGGSLRLSCAASGFTFSSHWMKWVRQAPGKGLEWVANINQDGSEKYYVDSVKGRFTISRDNAKNSLFLQMNSLRAEDTAVYYCARDIVLMVHDMDYYYYGMDVWGQGTTVTVSS
VL: not shown
notes: His variant of 300N
In assay [1], B14 had an equilibrium dissociation constant (Kd) of 643 nM and a t½ of 0 min. In assay [2], this molecule yielded a dissociation constant Kd of 292 nM and a t½ of 1 min. Moreover, in assay [3], the “KD ratio pH 5.75/pH 7.2” value was determined as 2.2 and the “t½ ratio pH 5.75/pH 7.2” value turned out to be 0.83.

B15: VK-L101H (antibody, V domains shown)
VH: EMQLVESGGGLVQPGGSLRLSCAASGFTFSSHWMKWVRQAPGKGLEWVANINQDGSEKYYVDSVKGRFTISRDNAKNSLFLQMNSLRAEDTAVYYCARDIVLMVYDMDYYYYGMDVWGQGTTVTVSS
VL: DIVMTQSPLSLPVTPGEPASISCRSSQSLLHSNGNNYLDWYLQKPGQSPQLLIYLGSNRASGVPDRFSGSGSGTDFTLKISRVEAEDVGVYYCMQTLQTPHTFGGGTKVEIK
notes: His variant of 300N
In assay [1], B15 came in with a Kd of 3.3 nM and a t½ of 8 min. Further, in assay [2], the Kd turned out to be 1.8 nM and the t½ worked out at 33 min. In assay [3], the “KD ratio pH 5.75/pH 7.2” value amounted to 1.84 and the “t½ ratio pH 5.75/pH 7.2” value amounted to 0.25.

B16: VH-W33H (antibody, V domains shown)
VH: EMQLVESGGGLVQPGGSLRLSCAASGFTFSSHHMKWVRQAPGKGLEWVANINQDGSEKYYVDSVKGRFTISRDNAKNSLFLQMNSLRAEDTAVYYCARDIVLMVYDMDYYYYGMDVWGQGTTVTVSS
VL: not shown
notes: His variant of 300N
In assay [1], B16 yielded a Kd of 21.5 nM and a t½ of 0.1 min. Besides, in assay [2], the Kd was determined as 15.4 nM and the t½ worked out at 4 min. Besides, in assay [3], the “KD ratio pH 5.75/pH 7.2” value stood at 1.39 and the “t½ ratio pH 5.75/pH 7.2” value amounted to 0.03.

B17: VH-S31H (antibody, V domains shown)
VH: EMQLVESGGGLVQPGGSLRLSCAASGFTFSHHWMKWVRQAPGKGLEWVANINQDGSEKYYVDSVKGRFTISRDNAKNSLFLQMNSLRAEDTAVYYCARDIVLMVYDMDYYYYGMDVWGQGTTVTVSS
VL: not shown
notes: His variant of 300N
Consider B17, for which, in assay [1], the dissociation constant (Kd) is 1 nM and the t½ worked out at 16 min. In assay [2], this molecule yielded a dissociation constant (Kd) of 1.01 nM and a t½ of 48 min. Besides, in assay [3], the “KD ratio pH 5.75/pH 7.2” value was 1 and the “t½ ratio pH 5.75/pH 7.2” value was 0.34.

B18: VH-Y111H (antibody, V domains shown)
VH: EMQLVESGGGLVQPGGSLRLSCAASGFTFSSHWMKWVRQAPGKGLEWVANINQDGSEKYYVDSVKGRFTISRDNAKNSLFLQMNSLRAEDTAVYYCARDIVLMVYDMDYYHYGMDVWGQGTTVTVSS
VL: not shown
notes: His variant of 300N
As to B18, in assay [1], the Kd came out at 7.01 nM and the t½ was determined as 6 min. In assay [2], the Kd was 19.4 nM and the t½ was 3 min. Besides, in assay [3], the “KD ratio pH 5.75/pH 7.2” value was 0.36 and the “t½ ratio pH 5.75/pH 7.2” value was found to be 2.29.

B19: VK-M94H (antibody, V domains shown)
VH: EMQLVESGGGLVQPGGSLRLSCAASGFTFSSHWMKWVRQAPGKGLEWVANINQDGSEKYYVDSVKGRFTISRDNAKNSLFLQMNSLRAEDTAVYYCARDIVLMVYDMDYYYYGMDVWGQGTTVTVSS
VL: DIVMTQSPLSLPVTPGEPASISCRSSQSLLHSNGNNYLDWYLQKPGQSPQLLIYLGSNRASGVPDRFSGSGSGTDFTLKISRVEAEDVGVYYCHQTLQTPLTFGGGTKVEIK
notes: His variant of 300N
In assay [1], B19 had a Kd of 11.3 nM and a t½ of 7 min. Moreover, in assay [2], the Kd was 3.53 nM and the t½ was found to be 29 min. In addition, in assay [3], the “KD ratio pH 5.75/pH 7.2” value was found to be 3.21 and the “t½ ratio pH 5.75/pH 7.2” value was 0.23.

For orientation: Kd means the concentration at which binding is half-saturated. The low end stands for higher affinity, the high end for lower affinity. Usually t½ stands for how long it takes for the measured level to halve. High values mean slow decline, low ones rapid decline.

These data come from patent US20140044730A1 (Regeneron, published 2014).
